Experimental findings from patent publication US20220089776A1 (OREGON HEALTH AND SCIENCE UNIVERSITY, published 2022) are described below.

Changes are numbered by the printed parent chain. Numbers in names are those of the source.

T1: human blood protein factor XII (FXII) (human, UniProt P00748 20-615)
T1 construct: mature; Single-chain zymogen as it circulates in plasma; also called human FXII; plasma-derived FXII
T1 sequence (looked up): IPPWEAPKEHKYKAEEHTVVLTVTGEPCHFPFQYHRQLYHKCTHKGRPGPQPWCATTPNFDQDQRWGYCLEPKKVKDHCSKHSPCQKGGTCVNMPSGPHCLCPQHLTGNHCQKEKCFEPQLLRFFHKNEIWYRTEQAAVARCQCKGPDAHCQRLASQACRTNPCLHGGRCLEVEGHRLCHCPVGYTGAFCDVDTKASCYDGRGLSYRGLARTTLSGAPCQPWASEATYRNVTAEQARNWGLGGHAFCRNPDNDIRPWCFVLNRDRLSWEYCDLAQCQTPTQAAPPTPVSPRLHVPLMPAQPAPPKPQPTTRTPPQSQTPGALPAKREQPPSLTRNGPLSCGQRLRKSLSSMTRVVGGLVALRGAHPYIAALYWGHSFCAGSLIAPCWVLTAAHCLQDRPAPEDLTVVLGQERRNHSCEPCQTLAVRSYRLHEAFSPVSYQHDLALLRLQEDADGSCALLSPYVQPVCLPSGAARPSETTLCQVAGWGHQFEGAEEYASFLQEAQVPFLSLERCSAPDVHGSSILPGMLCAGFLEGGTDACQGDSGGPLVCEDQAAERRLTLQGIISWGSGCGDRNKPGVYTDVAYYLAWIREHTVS

B1: Chimera (chimeric parental antibody) PP13892 (antibody, human IgG4, V domains shown)
VH: DVQLQESGPDLVKPSQSLSLTCTVTGYSITSGYSWHWIRQFPGNNLEWMGYIQYSGNTNSNPSLKSRISITRDTSKNQFFLHLNSVTTEDTATYYCARWGSFDYWGQGTTLTVSS
VL: QIVLTQSPAIMSASPGEKVTMTCSASSSVNYMHWYQQKSGTSPKRWIYDTSKLASGVPARFSGSGSGTSYSLTISSMEAGDAATYYCQQWSGNPPTFGGGTILEIK
notes: Variable regions of murine AB053 on the same human IgG4 (S241P hinge modified) backbone as the humanized antibodies; also called H7879 + L7879
B2: humanized 5C12 antibody HC1 + LC1 (PP13893) (antibody, human IgG4 S228P, kappa, V domains shown)
VH: QVQLQESGPGLVKPSQTLSLTCTVSGYSITSGYSWHWIRQHPGKGLEWIGYIQYSGNTNSNPSLKSRVTISRDTSKNQFSLKLSSVTAADTAVYYCARWGSFDYWGQGTLVTVSS
VL: EIVLTQSPATLSLSPGERATLSCRASSSVNYLHWYQQKPGQAPRRLIYDTSKLATGIPARFSGSGSGTDYTLTISSLEPEDFAVYYCQQWSGNPPTFGGGTKVEIKR
notes: Human IgG4 (S241P hinge modified), expressed in HEK293; also called AB054; h5C12
B3: humanized 5C12 antibody HC1 + LC2 (PP13894) (antibody, human IgG4 S228P, kappa, V domains shown)
VH: B2 VH
VL: B2 VL with R44K, L46W
notes: Human IgG4 (S241P hinge modified), expressed in HEK293; also called H7880 + L7881
B4: humanized 5C12 antibody HC3 + LC3 (PP13901) (antibody, human IgG4 S228P, kappa, V domains shown)
VH: B2 VH with Q1D, Q16E, H41P, K82R, L110M
VL: B2 VL with E1D, S7T, R44K, G99Q, K102R, V103L
notes: Human IgG4 (S241P hinge modified), expressed in HEK293; also called H7882 + L7882
B5: humanized 5C12 antibody HC1 + LC3 (PP13895) (antibody, human IgG4 S228P, kappa, V domains shown)
VH: B2 VH
VL: B2 VL with E1D, S7T, R44K, G99Q, K102R, V103L
notes: Human IgG4 (S241P hinge modified), expressed in HEK293; also called H7880 + L7882
B6: humanized 5C12 antibody HC2 + LC1 (PP13896) (antibody, human IgG4 S228P, kappa, V domains shown)
VH: B2 VH with Q1D, S25T, I49M
VL: B2 VL
notes: Human IgG4 (S241P hinge modified), expressed in HEK293; also called H7881 + L7880
B7: humanized 5C12 antibody HC3 + LC2 (PP13900) (antibody, human IgG4 S228P, kappa, V domains shown)
VH: B2 VH with Q1D, Q16E, H41P, K82R, L110M
VL: B2 VL with R44K, L46W
notes: Human IgG4 (S241P hinge modified), expressed in HEK293; also called H7882 + L7881
B8: humanized 5C12 antibody HC2 + LC2 (PP13897) (antibody, human IgG4 S228P, kappa, V domains shown)
VH: B2 VH with Q1D, S25T, I49M
VL: B2 VL with R44K, L46W
notes: Human IgG4 (S241P hinge modified), expressed in HEK293; also called H7881 + L7881
B9: humanized 5C12 antibody HC2 + LC3 (PP13898) (antibody, human IgG4 S228P, kappa, V domains shown)
VH: B2 VH with Q1D, S25T, I49M
VL: B2 VL with E1D, S7T, R44K, G99Q, K102R, V103L
notes: Human IgG4 (S241P hinge modified), expressed in HEK293; also called H7881 + L7882
B10: humanized 5C12 antibody HC3 + LC1 (PP13899) (antibody, human IgG4 S228P, kappa, V domains shown)
VH: B2 VH with Q1D, Q16E, H41P, K82R, L110M
VL: B2 VL
notes: Human IgG4 (S241P hinge modified), expressed in HEK293; also called H7882 + L7880

One assay has as its target T1, human blood protein factor XII (FXII). As to the kind of experiment: ELISA, human FXII coated at 1 µg/mL, goat anti-human IgG-HRP detection. The protocol:
One μg/mL of human FXII (Enzyme Research Labs, #HFXII 1212) was coated on the ELISA plate at 4° C. overnight. The coated plate was blocked with 2% BSA in phosphate buffered saline (PBS) at room temperature for one hour and then washed three times with PBS. All antibodies to be tested (PP13892-PP13901 or human Fc isotype control) were diluted with sample diluent in an 11 point, 5-fold, serial dilution starting at 10 μg/mL. Each sample was run in duplicate. Each concentration was incubated on the coated plate for one hour at room temperature and then washed three times with PBS. Bound antibody was detected with goat-anti-human IgG-HRP and washed six times with PBS. TMB substrate was added to each well and the reaction was stopped with 1M HCl. Absorbance was read at 450 nm.
EC₅₀ for the concentration response curve was calculated by plotting the OD measured at 450 nm against the logarithm of antibody concentration and the EC₅₀ was calculated by nonlinear regression analysis.
(In general: An ELISA detects its analyte on a solid surface through an enzyme-linked reagent.)
Turning to B1, the EC50 (as a rule, the concentration giving half of the maximal effect) came out at 9.04 ng/mL.
The same measure, in the same setting: for B2 the value was 9.12 ng/mL.
Same read-out and setting: for B3 the value was 8.22 ng/mL; for B4, 9.47 ng/mL.
Same read-out and setting: for B5 the value was 9.02 ng/mL; for B6, 8.24 ng/mL.
As for B7, the EC50 came to 7.69 ng/mL. The EC50 values of the last two molecules are within 1.5-fold of each other.
On the same count and under the same terms, for B8 the value was 8.78 ng/mL.
Same read-out and setting: for B9 the value was 8.09 ng/mL; for B10, 8.48 ng/mL.

The next assay has the same target. As to the kind of experiment: BLI (Octet RED96), antibody on anti-human Fc biosensors, antigen in solution, 1:1 fit. The protocol: Multi-concentration kinetic experiments were performed on the Octet RED96 system (ForteBio). Anti-human Fc biosensors (ForteBio) were hydrated in sample diluent (0.1% BSA in PBS and 0.02% Tween 20) and preconditioned in pH 1.9 Glycine. Antigen was diluted by a 7-point, 3-fold serial dilution starting at 200 nM with sample diluent. Antibodies were diluted to 1μg/ml with sample diluent and then immobilized onto anti-human Fc biosensors. After baselines were established for 30 seconds in sample diluent, the biosensors were moved to wells containing serially diluted antigen to measure the association and dissociation. […] The binding affinities were characterized by fitting the kinetic sensorgrams to a monovalent binding model (1:1 binding).
For orientation: BLI is a label-free optical method that tracks binding on a fibre tip over time.
For the molecule B1, the Kd (as a rule, a measure of binding affinity in units of concentration) worked out at 0.24 nM; the koff – broadly, the rate constant with which the complex falls apart – amounted to 0.00011 s⁻¹; the kon (in general, the rate constant with which the complex forms) came to 460000 M⁻¹ s⁻¹.
Molecule B2 returned an equilibrium dissociation constant (Kd) of 0.3 nM, a koff of 0.00016 s⁻¹ and a kon of 530000 M⁻¹ s⁻¹.
Turning to B3, the affinity, expressed as Kd, was 0.3 nM; the koff is 0.00016 s⁻¹; the kon was found to be 530000 M⁻¹ s⁻¹.
The matching figures for B4: 0.35 nM, 0.00018 s⁻¹ and 530000 M⁻¹ s⁻¹.
The molecule B5 displayed a Kd of 0.41 nM, a dissociation rate constant (koff) of 0.0002 s⁻¹ and a kon of 500000 M⁻¹ s⁻¹.
Consider B6, for which binding was put at a Kd of 0.44 nM, the koff stood at 0.00022 s⁻¹ and the kon amounted to 500000 M⁻¹ s⁻¹.
The like results for B7 were, in that order, 0.32 nM, 0.00019 s⁻¹ and 580000 M⁻¹ s⁻¹.
In turn, B8 gave a Kd of 0.15 nM, a dissociation rate constant (koff) of 9e-05 s⁻¹ and a kon of 620000 M⁻¹ s⁻¹.
The like results for B9 were, in that order, 0.31 nM, 0.00016 s⁻¹ and 500000 M⁻¹ s⁻¹.
Molecule B10 gave a Kd of 0.27 nM, a koff of 0.00015 s⁻¹ and a kon of 560000 M⁻¹ s⁻¹.
